Test results reported in doi:10.1101/2020.03.05.978023.

How the values were obtained:
[1] = biological target: Human DND1 (Dead end protein homolog 1) RRM2 domain (139-217) (human); assay: SEC
[2] = biological target: Human DND1 (Dead end protein homolog 1) RRM2 domain (139-217) (human); assay: crystal structure

## Human DND1 (Dead end protein homolog 1) RRM2 domain (139-217) (domain or fragment)
[1]
  stoichiometry N: 2
[2]
  stoichiometry N: 2
